Measured values from PMC2742380.
“And” between values parts separate entries of the source, which are not always exact repeats. Equal values may be shown once.

Assays:
[1] = biological target: His6-PA: WT PA with a carboxy-terminal six histidine tag, 63-kDa form (Bacillus anthracis); experiment: negative-stain electron microscopy
[2] = biological target: Protective antigen (PA), wild type, 63-kDa portion of trypsin-nicked PA (Bacillus anthracis); experiment: native MS
[3] = biological target: Protective antigen (PA), wild type, 63-kDa portion of trypsin-nicked PA (Bacillus anthracis); experiment: negative-stain electron microscopy

Protective antigen (PA), wild type, 63-kDa portion of trypsin-nicked PA (Bacillus anthracis), sequence (P13423 197-764 limits assumed): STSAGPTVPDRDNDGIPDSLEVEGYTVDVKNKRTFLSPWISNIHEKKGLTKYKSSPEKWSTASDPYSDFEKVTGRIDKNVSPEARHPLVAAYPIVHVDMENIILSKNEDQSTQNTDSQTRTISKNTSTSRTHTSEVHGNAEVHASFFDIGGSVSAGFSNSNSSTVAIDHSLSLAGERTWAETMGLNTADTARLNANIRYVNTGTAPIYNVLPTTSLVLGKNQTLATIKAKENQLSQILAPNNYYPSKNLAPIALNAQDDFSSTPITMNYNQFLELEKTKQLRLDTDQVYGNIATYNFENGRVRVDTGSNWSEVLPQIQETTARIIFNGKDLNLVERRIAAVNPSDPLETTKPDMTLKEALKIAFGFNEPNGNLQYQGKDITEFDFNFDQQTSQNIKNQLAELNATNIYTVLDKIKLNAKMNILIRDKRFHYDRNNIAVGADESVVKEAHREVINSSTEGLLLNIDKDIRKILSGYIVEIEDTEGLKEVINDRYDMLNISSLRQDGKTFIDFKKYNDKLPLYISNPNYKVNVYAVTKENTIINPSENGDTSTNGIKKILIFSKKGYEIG

His6-PA: WT PA with a carboxy-terminal six histidine tag, 63-kDa form (domain or fragment)
percent of oligomers that are heptamers [1]: 74%
percent of oligomers that are octamers [1]: 26%

LFN, amino-terminal domain of lethal factor (LF residues 1-263) (domain or fragment)
stoichiometry N (LFN per PA heptamer) [2]: 2
stoichiometry N (LFN per PA tetramer) [2]: 2

Protective antigen (PA), wild type, 63-kDa portion of trypsin-nicked PA (domain or fragment)
stoichiometry N [3]: 7 and 8
